Reference: patent US20240287172A1 (SCIRHOM, published 2024)
Residue numbers refer to the chain shown, from its start.

T1: hiR2-FL-V434E-T7 (human, UniProt Q6PJF5 1-856)
T1 sequence: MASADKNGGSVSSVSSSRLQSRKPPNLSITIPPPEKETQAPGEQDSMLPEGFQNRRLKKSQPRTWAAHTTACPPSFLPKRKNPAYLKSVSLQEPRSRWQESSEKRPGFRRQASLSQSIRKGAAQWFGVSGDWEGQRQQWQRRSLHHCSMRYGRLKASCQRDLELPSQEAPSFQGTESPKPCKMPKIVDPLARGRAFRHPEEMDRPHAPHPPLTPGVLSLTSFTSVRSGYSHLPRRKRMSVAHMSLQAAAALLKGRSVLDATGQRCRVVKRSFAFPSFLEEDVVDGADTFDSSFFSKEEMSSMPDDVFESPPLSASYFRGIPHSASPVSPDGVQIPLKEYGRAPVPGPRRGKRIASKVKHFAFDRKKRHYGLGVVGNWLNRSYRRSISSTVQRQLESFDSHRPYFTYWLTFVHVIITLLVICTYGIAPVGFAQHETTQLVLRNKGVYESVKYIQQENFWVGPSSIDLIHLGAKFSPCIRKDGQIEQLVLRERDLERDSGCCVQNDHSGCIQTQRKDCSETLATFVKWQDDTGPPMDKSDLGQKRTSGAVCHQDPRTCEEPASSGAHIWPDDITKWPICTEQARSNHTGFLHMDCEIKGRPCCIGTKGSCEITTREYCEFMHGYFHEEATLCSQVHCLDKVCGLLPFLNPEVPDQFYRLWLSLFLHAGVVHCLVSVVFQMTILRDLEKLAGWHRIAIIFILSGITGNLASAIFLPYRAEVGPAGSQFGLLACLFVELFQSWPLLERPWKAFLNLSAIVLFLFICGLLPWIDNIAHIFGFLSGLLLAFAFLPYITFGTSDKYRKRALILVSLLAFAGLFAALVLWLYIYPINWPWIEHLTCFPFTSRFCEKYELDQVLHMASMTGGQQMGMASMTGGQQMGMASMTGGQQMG

T2: hiR2-FL-I483V-T7 (human, UniProt Q6PJF5 1-856)
T2 sequence: T1 sequence with E434V, I483V

B1: antibody 48 (antibody, V domains shown)
VH: QVQLQQSGTELVRPGTSVKVSCKASGYAFTNYLIEWVKQRPGQGLEWIGVINPGSGFTKYNEKFKGKATLTADKSSSTVYMHLSSLTSEDSAVYFCARGLYRAMDYWGQGTSVTVSS
VL: DIQMTQSPASQSASLGESVTITCLASQTIATWLAWYQQKPGKSPQLLIYGATTLADGVPSRFSGGGSGTKFSFKISSLQAEDFVSYYCQQLYSTPYTFGGGTKLEIK
notes: mouse IgG, kappa light chain; also called clone #48; purified antibody 48
B2: antibody 50 (antibody, V domains shown)
VH: B1 VH with T9A, T16A, T30S, V79A, H82Q
VL: B1 VL with A30G, G50A, T52A, T53S, S85N, L91I
notes: mouse IgG, kappa light chain; also called clone #50; purified antibody 50

Key:
[1] = target: T1, hiR2-FL-V434E-T7; assay: FACS, MEF-DKO cells, 3 µg/ml
Text: (§1) In brief, immortalized MEF-DKO-hiR2-FL-A431S-T7, MEF-DKO-hiR2-FL-V434E-T7, MEF-DKO-hiR2-FL-T436V-T7, MEF-DKO-hiR2-FL-Q437D-T7, MEF-DKO-hiR2-FL-L438S-T7, MEF-DKO-hiR2-FL-S448N-T7, MEF-DKO-hiR2-FL-I452V-T7, MEF-DKO-hiR2-FL-I464E-T7, MEF-DKO-hiR2-FL-D465A-T7, MEF-DKO-hiR2-FL-I477M-T7, MEF-DKO-hiR2-FL-K479Q-T7, MEF-DKO-hiR2-FL-G481P-T7, MEF-DKO-hiR2-FL-I483V-T7, MEF-DKO-hiR2-FL-E484H-T7, MEF-DKO-hiR2-FL-Q485S-T7, MEF-DKO-hiR2-FL-L486F-T7, MEF-DKO-hiR2-FL-V487I-T7, MEF-DKO-hiR2-FL-R489S-T7, MEF-DKO-hiR2-FL-E490A-T7, MEF-DKO-hiR2-FL-D492E-T7, MEF-DKO-hiR2-FL-L493R-T7, MEF-DKO-hiR2-FL-R495K-T7 and MEF-DKO-hiR2-FL-D496H-T7 cells were harvested with 10 mM EDTA in PBS, washed and resuspended in FACS buffer (PBS, 3% FBS, 0.05% sodium azide), and seeded in Nunc U-bottom 96-well plates (Thermo Fisher Scientific, USA) at approximately 1×10⁵ cells per well. To pellet cells and remove supernatants, the plates were centrifuged at 1,500 rpm and 4° C. for 3 minutes. For primary staining, cells were resuspended in 100 μl per well of either FACS buffer alone (controls) or the purified antibodies 3, 5, 16, 22, 34, 42, 43, 44, 48, and 50 of the invention at 3 μg/ml in FACS buffer and incubated on ice for 1 hour. Afterwards, plates were centrifuged at 1,500 rpm and 4° C. for 3 minutes and washed twice with 200 μl per well of FACS buffer. For secondary staining, cells were spun down and resuspended in 100 μl per well of PE-conjugated goat anti-mouse IgG F(ab′)2 detection fragment (Dianova, Germany) diluted 1:100 in FACS buffer. Protected from light, the cell suspensions were incubated on ice for 1 hour. Plates were then centrifuged at 1,500 rpm and 4° C. for 3 minutes and washed three times with 200 μl per well of FACS buffer. Finally, cells were resuspended in 150 μl per well of FACS buffer and analyzed using a BD Accuri™ C6 Plus flow cytometer (Becton Dickinson, Germany).

[2] = target: T2, hiR2-FL-I483V-T7; assay: FACS, MEF-DKO cells, 3 µg/ml
Text: as §1

Binder	loss of binding vs wild type [1] [%]	loss of binding vs wild type [2] [%]
B1	≥ 30	≥ 30
B2	≥ 30	≥ 30
